Measurements: article PMC11602143, “Human selenocysteine synthase, SEPSECS, has evolved to optimize binding of a tRNA-based substrate” (Nucleic Acids Research, 2024)

Target: the molecule itself
Experiment: SEC-MALS; protein alone, 250 μl at 1 and 4 mg/ml on Superose 6 Increase 10/300; 20 mM Tris pH 8.0, 150 mM NaCl, 5% glycerol, 0.5 mM TCEP, 10 μM PLP; oligomeric state of the holoenzyme

B1: Δ470 SEPSECS (human SEPSECS with Asp470 mutated to a stop codon) (domain or fragment, UniProt Q9HD40 1-469, looked up)
chain: MNRESFAAGERLVSPAYVRQGCEARRSHEHLIRLLLEKGKCPENGWDESTLELFLHELAIMDSNNFLGNCGVGEREGRVASALVARRHYRFIHGIGRSGDISAVQPKAAGSSLLNKITNSLVLDIIKLAGVHTVANCFVVPMATGMSLTLCFLTLRHKRPKAKYIIWPRIDQKSCFKSMITAGFEPVVIENVLEGDELRTDLKAVEAKVQELGPDCILCIHSTTSCFAPRVPDRLEELAVICANYDIPHIVNNAYGVQSSKCMHLIQQGARVGRIDAFVQSLDKNFMVPVGGAIIAGFNDSFIQEISKMYPGRASASPSLDVLITLLSLGSNGYKKLLKERKEMFSYLSNQIKKLSEAYNERLLHTPHNPISLAMTLKTLDEHRDKAVTQLGSMLFTRQVSGARVVPLGSMQTVSGYTFRGFMSHTNNYPCAYLNAASAIGMKMQDVDLFIKRLDRCLKAVRKERSKES
notes: Human SEPSECS truncated by a stop codon at the position of Asp470 (removes the α15–α16 loop and α16); made from pET15b-hWTSSS by site-directed mutagenesis; Same vector and purification as the wild type; also called Δ470 human SEPSECS; truncated mutant
  stoichiometry N: 4

B2: Human SEPSECS (O-phosphoseryl-tRNA^Sec selenium transferase), wild type (enzyme)
chain: MNRESFAAGERLVSPAYVRQGCEARRSHEHLIRLLLEKGKCPENGWDESTLELFLHELAIMDSNNFLGNCGVGEREGRVASALVARRHYRFIHGIGRSGDISAVQPKAAGSSLLNKITNSLVLDIIKLAGVHTVANCFVVPMATGMSLTLCFLTLRHKRPKAKYIIWPRIDQKSCFKSMITAGFEPVVIENVLEGDELRTDLKAVEAKVQELGPDCILCIHSTTSCFAPRVPDRLEELAVICANYDIPHIVNNAYGVQSSKCMHLIQQGARVGRIDAFVQSLDKNFMVPVGGAIIAGFNDSFIQEISKMYPGRASASPSLDVLITLLSLGSNGYKKLLKERKEMFSYLSNQIKKLSEAYNERLLHTPHNPISLAMTLKTLDEHRDKAVTQLGSMLFTRQVSGARVVPLGSMQTVSGYTFRGFMSHTNNYPCAYLNAASAIGMKMQDVDLFIKRLDRCLKAVRKERSKESDDNYDKTEDVDIEEMALKLDNVLLDTYQDASS
notes: Human SEPSECS, wild type, cloned into pET15b (pET15b-hWTSSS); no tag cleavage is described in the purification; PLP cofactor is present in the buffers; also called WT SEPSECS; human WT SEPSECS
  stoichiometry N: 4
